The values below come from publication PMC3530536.

In this assay the target is recombinant RRM2 domain (aa 190–265) of human WT TDP-43 (human) (UniProt Q13148). The assay can be described thus: SEC; Superdex 75 10/300 in PBS, 0.5 mL/min; soluble RRM2 2–3 mg/mL after heat at 70°C for 10 min, nucleotide-free.

Regarding “recombinant RRM2 domain (aa 190–265) of human WT TDP-43 (from UniProt Q13148 190-265) (domain or fragment)”, the stoichiometry N was 2.
